Results as given in US20250297004A1, “NECTIN-4 BINDING AGENTS” (INNATE PHARMA, priority 2022, published 2025).
Numbering of substitutions follows the chain as printed.

What was measured:
[1] = tested on: MC-38 cells endogenously expressing MDR1 P-glycoprotein (Pgp), engineered to express Nectin-4; test: In vitro efficacy of ADCs in Pgp-expressing cancer model (CTG); type: cell-based, murine; conditions: for anti-tumor activity in presence or absence of the Pgp inhibitor cyclosporine: 150 nM ADC, normalized to control antibody, cyclosporin A 5 μM, FIG. 10B
Procedure: MC-38 cells that endogenously express MDR1 P-glycoprotein (Pgp) were engineered to express Nectin-4 and cultured in DMEM+10% FBS. Cells were either treated with vehicle (DSMO) or with cyclosporin A (5 μM, stock solution in DMSO) known to act as an inhibitor of Pgp, in presence of ADCs.
The ADCs and the equivalent isotype control ADCs were used at dose range from 150 to 2.3 10^−3 nM. After five days of co-incubation with cells, cell viability was measured by addition of Cell Titer Glo™ (CTG) substrate. Luminescence vs. Ab concentration was plotted.

[2] = tested on: SUM185 cells; test: Comparative in vitro killing of SUM185 cells (model of anti-HER2 resistance), CTG; type: cell-based, human; conditions: 5 days, 5E7 ADC DAR=8, PADCEV DAR=4, FIG. 5
Procedure: This setting was used as a model of anti-HER2 resistance. SUM185 cells express Nectin-4 at relatively high levels, with Nectin-4 expression levels about twice that of HER2 in these cells (see Example 1). In this experiment, the 5E7 antibody was tested as an ADC having DAR=8 along with PADCEV™ (DAR=4, specification for FDA-approved PADCEV™) and control antibodies all conjugated with the same toxin at equivalent drug to antibody ratios. 5E7 was conjugated with a camptothecin analogue Dxd via the ggfg-Dxd linker.
Briefly, dose-ranges of each tested Ab (starting point 150 nM, dilution factor 2 for 3 points, then 5 for 5 points) were incubated on cells for 5 days before cell viability measurement by addition of CTG substrate. Luminescence vs. Ab concentration was plotted on graph.
For each ADC, a concentration range of ADC was incubated with nectin-4-expressing cells. After incubation, CTG substrate was added at 1:1 ratio and the luminescent signal was read with a plate reader (Enspire), allowing quantification of the ATP present (indicator of metabolically active cells) which was proportional to cell viability.

[3] = tested on: UC (patients); conditions: EV-201 Phase 2 study; cited from earlier work
[4] = target: T1, human Nectin-4 expressed on cells (human, UniProt Q96NY8 32-510); test: flow cytometry (FL2-A) on SUM185 human breast cancer cells; unstained cells 71.5
T1 sequence: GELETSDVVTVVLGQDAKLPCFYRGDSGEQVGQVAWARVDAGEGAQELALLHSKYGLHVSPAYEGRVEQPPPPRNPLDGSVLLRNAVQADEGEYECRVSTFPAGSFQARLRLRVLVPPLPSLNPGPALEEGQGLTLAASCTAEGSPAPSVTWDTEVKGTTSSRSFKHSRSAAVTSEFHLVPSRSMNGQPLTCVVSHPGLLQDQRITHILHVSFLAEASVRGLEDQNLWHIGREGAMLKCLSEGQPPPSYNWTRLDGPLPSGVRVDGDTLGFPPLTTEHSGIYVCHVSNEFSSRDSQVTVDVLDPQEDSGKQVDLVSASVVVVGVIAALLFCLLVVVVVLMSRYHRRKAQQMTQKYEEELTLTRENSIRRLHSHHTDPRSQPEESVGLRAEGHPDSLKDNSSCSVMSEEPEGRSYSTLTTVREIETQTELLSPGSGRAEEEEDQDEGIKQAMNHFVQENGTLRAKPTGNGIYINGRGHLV

[5] = target: HER2 on human breast cancer tumor cells (human) (UniProt P04626); test: as above
[6] = target: T1, human Nectin-4 expressed on cells; test: flow cytometry on SUM190 cells, antibody at 10 ug/ml
[7] = target: T1, human Nectin-4 expressed on cells; test: flow cytometry on SUM185 cells, antibody at 10 ug/ml
[8] = target: T2, rat Nectin-4 protein expressed on CHO cells (rat, UniProt Q8R007 31-508 (mouse entry)); test: flow cytometry on CHO cells expressing rat Nectin-4, Median MFI (PE)
T2 construct: no cleavage site is stated; also called Rat Nectin-4 V5
T2 chain: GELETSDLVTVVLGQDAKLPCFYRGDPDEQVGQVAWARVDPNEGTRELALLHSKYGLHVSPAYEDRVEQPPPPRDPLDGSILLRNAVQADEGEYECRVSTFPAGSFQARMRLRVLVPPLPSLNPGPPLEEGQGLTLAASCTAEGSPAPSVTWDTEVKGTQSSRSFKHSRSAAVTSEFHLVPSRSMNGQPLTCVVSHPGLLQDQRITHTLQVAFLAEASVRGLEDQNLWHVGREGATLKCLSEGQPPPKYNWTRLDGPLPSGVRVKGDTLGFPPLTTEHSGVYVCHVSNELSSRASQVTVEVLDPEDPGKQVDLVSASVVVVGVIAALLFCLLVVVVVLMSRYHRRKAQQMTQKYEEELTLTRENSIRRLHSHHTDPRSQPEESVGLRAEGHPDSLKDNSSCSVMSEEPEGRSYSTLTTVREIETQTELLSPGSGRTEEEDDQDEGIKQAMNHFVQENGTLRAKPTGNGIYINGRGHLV
Procedure: (§1) Anti-Nectin-4 antibodies were tested by flow cytometry for binding to different CHO cell lines made to express respectively the mouse, cynomolgus and rat Nectin-4 protein (including an N-terminal V5 tag not shown in the sequences below).

[9] = target: T3, cynomolgus Nectin-4 protein expressed on CHO cells (cynomolgus, UniProt Q96NY8 32-510 (human entry)); test: flow cytometry on CHO cells expressing cynomolgus Nectin-4, Median MFI (PE)
T3 construct: also called Cyno Nectin-4 V5
T3 chain: T1 sequence with V39A, I230V, A437T
Procedure: as §1

[10] = tested on: SUM190 cells subcutaneously engrafted in CB17-SCID mice; test: In vivo efficacy of Dxd and exatecan ADCs in SUM190 model; design: species or system mouse; conditions: single i.v. injection 10 mg/kg; FIG. 9C
Procedure: Human breast cancer cell line SUM190PT was cultured in the following cell culture medium containing Ham's F12, FBS 1 g/L, HEPES 10 mM, Ethanolamine 5 mM, Insulin 5 μg/mL, Hydrocortisone 1 μg/mL, Apo-Transferrin 5 μg/mL, Triiodo Thyronine (T3) 6.7 ng/ml, Sodium selenite 8.7 ng/ml.
Immunodeficient CB17-SCID mice were used at 7 to 8 weeks of age. […] The ggfg-Dxd linker will release Dxd (deruxtecan) upon cleavage and the PEG (8U)-Val-Ala-PAB-Exatecan linker will release exatecan upon cleavage.
SUM190 cells were subcutaneously engrafted in CB17-SCID immunodeficient mice at the dose of 0.5 million in 100 μl of Matrigel containing growth factor diluted at ½ in PBS. At day 21, when tumors reached a mean volume at 146.9±63.2 mm^3 or 213.2±77.5 mm^3 depending on the experiment, mice were randomized into groups of 8 or 9 mice depending on the experiment and treated intravenously with a single injection of 3 or 10 mg/kg body weight ADC or PBS as control. Tumor growths were followed twice a week. Kaplan Meier survival curves were established by using GraphPad Prism V7 software according to the following criteria: when the tumor volume reached 1500 mm^3, mice were euthanized and considered dead on the day of sacrifice (D). When tumors were highly necrotic, mice were euthanized and considered dead on the same day (D).

Molecule: PADCEV™
- anti-tumor activity in presence or absence of the Pgp inhibitor cyclosporine [1]: negatively affected by Pgp
- killing of SUM185 cells / reduction of cell viability [2]: able to kill the SUM185 more efficiently than ENHERTU™
- CR (complete response rate) [3]: 12%
- ORR (objective response rate) [3]: 44%
- discontinuation due to clinical symptoms [3]: 5%
- discontinuation due to progressive disease as assessed by RECIST [3]: 48%
- patients that discontinued experienced adverse events, notably neuropathy [3]: 18%

Molecule: Control Antibody
- Median of fluo. [4]: 94.5
- Median of fluo. [5]: 94.5

Molecule: anti-Nectin-4 antibody (ASG-22ME modified as a human IgG1 isotype containing a N297Q mutation)
- MFI [6]: 991 MFI
- MFI [7]: 4330 MFI

B1: enfortumab (antibody, V domains shown)
VH: EVQLVESGGGLVQPGGSLRLSCAASGFTFSSYNMNWVRQAPGKGLEWVSYISSSSSTIYYADSVKGRFTISRDNAKNSLSLQMNSLRDEDTAVYYCARAYYYGMDVWGQGTTVTVSS
VL: DIQMTQSPSSVSASVGDRVTITCRASQGISGWLAWYQQKPGKAPKFLIYAASTLQSGVPSRFSGSGSGTDFTLTISSLQPEDFATYYCQQANSFPPTFGGGTKVEIKR
- EC50 (read off the curve) [8]: ~0.2 µg/mL
- EC50 (read off the curve) [9]: ~0.08 µg/mL

B2: 5E7-exatecan: 5E7 conjugated to the exatecan linker PEG (8U)-Val-Ala-PAB-Exatecan (drawing 79), DAR=8 (conjugate)
VH: QVQLQQPGAELVKPGASVKLSCKASGYIFTSYWMHWVKQRPGQGLEWIGEIDPSDSYTNYNQKFKGKATLTLDKSSSTTYMQLSSLTSEDSAVYYCVRGYGNYGDYWGQGTTLTVSSASTKGP
VL: DVVMTQAAFSNPVTLGTSASISCRSSKSLLHSNGITYLYWYLQKPGQSPQLLIYQMSNLASGVPDRFSSSGSGTDFTLRISRVEAEDVGVYYCAQNLELPWTFGGGTKLEIKRTVAAP
- anti-tumor activity in presence or absence of the Pgp inhibitor cyclosporine [1]: highly effective
- decrease of cell viability (luminescence) ([1]; MC-38 Pgp/Nectin-4 cells, 5 days, setting of drug resistance, FIG. 10A): highly potent to decrease cell viability
- efficiency in controlling tumor growth in mice [10]: higher efficiency in controlling tumor growth in mice compared 5E7 conjugated with ggfg-Dxd
